The values that follow come from patent US20070128190A1 (GLENMARK PHARMACEUTICALS S A, published 2007).

Read-outs that look alike come from different tables or passages of the source.

For orientation: Ki means a measure of affinity in units of concentration, obtained from inhibition or displacement. Read a low Ki as a stronger hold on the target.

The target in experiment [1] is T1, Humanized TMC-2206 (hIgG4/κ VH12.0/VL10.0Q).
T1 construct: labelled with Eu or Alexa-488 in some assays
Description: fusion protein competing Eu-humanized TMC-2206 off α2β1-coated plates. An excerpt: The inhibition curves were fitted with the “one site competition” model using Prism software (GraphPad, Inc.) to obtain IC₅₀ values and to calculate the Kᵢ using the equation of Cheng and Prusoff (1973) and the respective values for KD from above.
The cloning of the human, rhesus macaque, rat, and mouse α2 I domains were described in Example 12. Cynomolgus and additional rhesus monkey α2 I domains were cloned from cDNA derived from total RNA extracted from skin tissue (MediCorp, Inc., Montreal, QC).

In experiment [2] the target is T2, TMC-2206.
T2 construct: murine IgG1/κ secreted by hybridoma BHA2.1; labelled with Eu-N1-ITC where used as tracer; also called BHA2.1
Description: fusion protein competing Eu-TMC-2206 off α2β1-coated plate. How it is done:
Wells in a 96 well microtiter plate were coated with platelet α2β1-integrin (custom-coated with human platelet α2β1 by GTI Inc., Wis.) and then blocked with nonfat milk. […] After concentration in prewashed MicroSep concentrators (30-kDa cutoff; Pall Life Sciences at 9500 rpm (7000×g) in a JA-20 rotor (Beckman Instruments, Inc.) for 20 minutes at 4° C.), antibodies were adjusted to 4.0 mg/mL with PBS containing a final concentration of 100 mM NaHCO₃, pH 9.3. The mAb/bicarbonate mixture (0.250 mL) was gently mixed into a vial containing 0.2 mg N¹-(p-isothiocyanatobenzyl)-diethylenetriamine-N¹,N²,N³N³-tetraacetic acid chelated with Eu³⁺ (Eu-N1-ITC; Perkin Elmer Life Sciences) and reacted overnight at 4° C. without stirring. Each labeled antibody mixture was applied to a separate PD-10 column (GE Biosciences, Piscataway, N.J.) pre-equilibrated with Running Buffer (50 mM Tris, pH 7.4 and 138 mM NaCl). Fractions (0.5 mL) were collected and assayed for total protein (Bradford reagent; Bio-Rad Laboratories, Hercules, Calif.) using a SpectraMax 384 absorbance plate reader and for europium after 1:10.000 dilution in DELFIA Enhancement Solution (Perkin-Elmer) by time-resolved fluorescence (TRF) using a Victor2 multi-label plate reader (Perkin Elmer). The fractions that were positive for both protein and Eu label were pooled and applied to new PD-10 columns and samples collected and assayed for total protein and for europium content by TRF calibrated against a europium standard solution (Perkin-Elmer) to calculate the fluor: protein ratio.

The target in experiment [3] is T2, TMC-2206. Put plainly: ELISA, GST fusion protein on immobilized TMC-2206 (Kd apparent). How it is done: The fusion proteins were then expressed and purified as described above for the human GST-α2 I domain fusion protein. […] Therefore, these and the primate fusion proteins were further purified by size exclusion chromatography on a Sephadex 75 10/30 (GE-Amersham) column (primate) by FPLC on an Akta-Basic FPLC system (GE-Amersham) to yield a monomeric fraction. […] The Kᵢ assays were performed as described above in Example 2. […] Plates were sealed and coating occurred overnight at 4° C. The next morning, the plates were washed twice with TBS solution and then blocked using 200 μL of the blocking solution described above for 1 hour at room temperature with shaking. After blocking, the blocking solution was removed but the wells were not washed. Instead, a serial dilution of GST fusion protein was made, added to the wells and then incubated for 2 hours at room temperature with shaking. The wells were then aspirated and a TBS washing buffer applied for 5 minutes at room temperature. The washing step was repeated twice more before the secondary antibody was applied. The secondary antibody step consisted of Amersham's HRP-conjugated rabbit anti-GST antibody diluted 1:2000 in blocking buffer. One hundred μL of secondary antibody was added to each well and incubated at room temperature for 1.5 hours with shaking. The wells were again aspirated and washed three times with wash buffer before adding the substrate reaction mixture. One hundred μL of substrate reaction mixture (1:1 dilution of TMB kit) was then added to each well for 6 minutes. The reaction was stopped by adding 100 μL of 0.1M H₂SO₄. The reaction within the wells was then read and quantified by spectrophotometric absorption using the Molecular Dynamics plate reader and associated Softmax software, respectively. Kd values were then estimated from the EC₅₀ values using Prism software (Graphpad, Calif.).
In general terms: An ELISA detects its analyte on a solid surface through an enzyme-linked reagent.

Experiment [4] concerns the target T2, TMC-2206. Description: fusion protein competing Eu-TMC-2206 off α2β1-coated plate. The source holds these as a separate data set.
Experiment [5] addresses T2, TMC-2206. The description is as above. The source holds these as a separate data set.
Experiment [6] has as its target T3, human α2 integrin with endogenous hamster β1 on CHO cells (human; hamster). Description: cell-based or functional assay.
The target of experiment [7] is T4, human platelet α2β1 integrin (immobilized on microtiter plates) (human, UniProt P17301 30-1181; P05556 21-798).
T4 construct: plates custom-coated with human platelet α2β1 by GTI Inc; also called immobilized α2β1 integrin; α2β1-coated plates
Put plainly: competition with Eu-TMC-2206 on human platelet α2β1-coated plate. How it is done:
Exemplary IgG1 antibodies have a hVH 14.0 γ heavy chain (SEQ ID NO:181) or a hVH12.0 γ1 heavy chain (SEQ ID NO:182) and a hVL10.0Q light chain (SEQ ID NO:178). Exemplary IgG4 antibodies have a hVH14.0 γ4 heavy chain (SEQ ID NO:174) or a hVH12.0 γ4 heavy chain (SEQ ID NO:176) and a hVL 10.0Q light chain (SEQ ID NO:178). Purified antibodies were tested in the competition assay to compare potency by Kᵢ values as well as in the cell adhesion to collagen assay, where potency is measured as EC₅₀ values.

Experiment [8] concerns the target T4, human platelet α2β1 integrin …. The experiment is described as above. How it is done:
(§1) Each labeled antibody mixture was applied to a separate PD-10 column (GE Biosciences, Piscataway, N.J.) pre-equilibrated with Running Buffer (50 mM Tris, pH 7.4 and 138 mM NaCl). Fractions (0.5 mL) were collected and assayed for total protein (Bradford reagent; Bio-Rad Laboratories, Hercules, Calif.) using a SpectraMax 384 absorbance plate reader and for europium after 1:10.000 dilution in DELFIA Enhancement Solution (Perkin-Elmer) by time-resolved fluorescence (TRF) using a Victor2 multi-label plate reader (Perkin Elmer). The fractions that were positive for both protein and Eu label were pooled and applied to new PD-10 columns and samples collected and assayed for total protein and for europium content by TRF calibrated against a europium standard solution (Perkin-Elmer) to calculate the fluor: protein ratio. […] After incubating the sealed plates for 1 hr at 37° C. to allow binding to reach equilibrium, 2 μL samples were transferred from each well into a fresh well containing DELFIA Enhancement Solution (100 μL/well; Perkin-Elmer) for the measurement of free (unbound) label. Enhancement Solution (100 μL/well) was added to the emptied wells for the measurement of bound label. The plate was shaken (Titer Plate Shaker speed setting of 5 for 5 minutes at room temperature) and time-resolved fluorescent (TRF) intensities were read using a Victor2 multi-label plate reader (Perkin-Elmer Wallac, Boston, Mas.).
This is another data set of the same source.

Experiment [9] deals with T3, human α2 integrin with endogenous …. Description: cell-based or functional assay. The source holds these as a separate data set.
The target in experiment [10] is T4, human platelet α2β1 integrin …. Put plainly: competition with Eu-TMC-2206 on human platelet α2β1-coated plate, Cheng-Prusoff. How it is done:
as §1, with “Enhancement Solution (100 μL/well) was added to the emptied wells for the measurement of bound label.” left out

Experiment [11] has the same target. Put plainly: competition with Eu-TMC-2206 on human platelet α2β1-coated plate. This is another data set of the same source.

B1: GST-cynomolgus α2 I domain fusion protein of Example 18 (sequence identical to the human I domain) (other)
chain: SPDFQLSASFSPATQPCPSLIDVVVVCDESNSIYPWDAVKNFLEKFVQGLDIGPTKTQVGLIQYANNPRVVFNLNTYKTKEEMIVATSQTSQYGGDLTNTFGAIQYARKYAYSAASGGRRSATKVMVVVTDGESHDGSMLKAVIDQCNHDNILRFGIAVLGYLNRNALDTKNLIKEIKAIASIPTERYFFNVSDEAALLEKAGTLGEQIFSIEGTV
notes: also called GST-cynomolgous-α2 I domain fusion protein; not shown: glutathione S-transferase tag, vector not restated
In experiment [1], B1 registered a Ki of 0.47 nM.

B2: GST-hα2 I domain A114Q (other)
chain: GSSPDFQLSASFSPATQPCPSLIDVVVVCDESNSIYPWDAVKNFLEKFVQGLDIGPTKTQVGLIQYANNPRVVFNLNTYKTKEEMIVATSQTSQYGGDLTNTFGAIQYARKYAYSQASGGRRSATKVMVVVTDGESHDGSMLKAVIDQCNHDNILRFGIAVLGYLNRNALDTKNLIKEIKAIASIPTERYFFNVSDEAALLEKAGTLGEQIFSIEGTVEFIVTD
notes: same construct as m41; not shown: GST carrier with the pGEX-2TK vector linker at the N end
For B2, in the experiment with TMC-2206 [2], the Ki worked out at 0.64 nM. Moreover, the Kd in the experiment with TMC-2206 [3] stood at 0.19 nM.

B3: GST-hα2 I domain Q89H (other)
chain: GSSPDFQLSASFSPATQPCPSLIDVVVVCDESNSIYPWDAVKNFLEKFVQGLDIGPTKTQVGLIQYANNPRVVFNLNTYKTKEEMIVATSHTSQYGGDLTNTFGAIQYARKYAYSAASGGRRSATKVMVVVTDGESHDGSMLKAVIDQCNHDNILRFGIAVLGYLNRNALDTKNLIKEIKAIASIPTERYFFNVSDEAALLEKAGTLGEQIFSIEGTVEFIVTD
notes: as for B2
Turning to B3, in the experiment with TMC-2206 [4], the “fold decrease in Ki values” was determined as 15.9 fold. In the experiment with TMC-2206 [5], the Ki turned out to be 4.46 nM.

B4: GST-hα2 I domain A115T (other)
chain: GSSPDFQLSASFSPATQPCPSLIDVVVVCDESNSIYPWDAVKNFLEKFVQGLDIGPTKTQVGLIQYANNPRVVFNLNTYKTKEEMIVATSQTSQYGGDLTNTFGAIQYARKYAYSATSGGRRSATKVMVVVTDGESHDGSMLKAVIDQCNHDNILRFGIAVLGYLNRNALDTKNLIKEIKAIASIPTERYFFNVSDEAALLEKAGTLGEQIFSIEGTVEFIVTD
notes: as for B2
In the case of B4, in the experiment with TMC-2206 [2], the Ki came to 0.76 nM. Also, the Kd in the experiment with TMC-2206 [3] was 0.19 nM.

B5: GST-hα2 I domain N73D (other)
chain: GSSPDFQLSASFSPATQPCPSLIDVVVVCDESNSIYPWDAVKNFLEKFVQGLDIGPTKTQVGLIQYANNPRVVFDLNTYKTKEEMIVATSQTSQYGGDLTNTFGAIQYARKYAYSAASGGRRSATKVMVVVTDGESHDGSMLKAVIDQCNHDNILRFGIAVLGYLNRNALDTKNLIKEIKAIASIPTERYFFNVSDEAALLEKAGTLGEQIFSIEGTVEFIVTD
notes: as for B2
With B5, the “fold decrease in Ki values” with TMC-2206 [4] stood at 7.8 fold. In the experiment with TMC-2206 [5], the affinity, expressed as Ki, was 2.17 nM.

B6: GST-hα2 I domain E195W (other)
chain: GSSPDFQLSASFSPATQPCPSLIDVVVVCDESNSIYPWDAVKNFLEKFVQGLDIGPTKTQVGLIQYANNPRVVFNLNTYKTKEEMIVATSQTSQYGGDLTNTFGAIQYARKYAYSAASGGRRSATKVMVVVTDGESHDGSMLKAVIDQCNHDNILRFGIAVLGYLNRNALDTKNLIKEIKAIASIPTERYFFNVSDWAALLEKAGTLGEQIFSIEGTVEFIVTD
notes: same construct as m41; reported to lock the I domain in the open conformation; not shown: GST carrier with the pGEX-2TK vector linker at the N end
In the case of B6, the “fold decrease in Ki values” with TMC-2206 [4] amounted to 45 fold. Also, the affinity with TMC-2206 [5] corresponds to a Ki of 12.8 nM.

B7: humanized TMC-2206 variant hIgG1/κ VH14.0/VL10.0Q (antibody)
heavy: not shown
light: DFVMTQSPAFLSVTPGEKVTITCSAQSSVNYIHWYQQKPDQAPKKLIYDTSKLASGVPSRFSGSGSGTDYTFTISSLEAEDAATYYCQQWTTNPLTFGQGTKVEIKRTVAAPSVFIFPPSDEQLKSGTASVVCLLNNFYPREAKVQWKVDNALQSGNSQESVTEQDSKDSTYSLSSTLTLSKADYEKHKVYACEVTHQGLSSPVTKSFNRGEC
notes: hVH14.0 γ1 heavy chain and hVL10.0Q light chain; also called VH 14.0 VL 10.0Q (IgG1)
For B7, the “EC50 (nM), cell adhesion to collagen assay” value in experiment [6] was determined as 1.3 nM. For the same molecule, the Ki stood at 0.24 nM in experiment [7] and 0.29 nM in experiment [8].

B8: mouse-human chimeric TMC-2206 antibody (wild type chimera) (antibody, human IgG1, V domains shown)
VH: QVQLKESGPGLVAPSQSLSITCTVSGFSLTNYGIHWVRQPPGKGLEWLGVIWARGFTNYNSALMSRLIITKDNSQSQVFLKMNSLQPDDSATYFCARANDGVYYAMDYWGQGTSVTVSS
VL: QFVLTQSPAFLSASPGEKVTMTCSANSSVNYIHWYQQKSGTSPKKWIYDTSKLASGVPVRFSGSGSGTSYSLTISSMETEDAATYYCQQWTTNPLTFGAGTRVELK
notes: murine VH and VL on human IgG1 Fc and human κ constant region; also called wt chimera
As for B8, the “EC50, inhibition of adhesion of CHO-α2 cells to collagen Type I” value in experiment [9] came out at 1.8 nM. For the same molecule, the Ki in experiment [10] came out at 0.27 nM; in experiment [8] it was 0.26 nM; in experiment [11] it was 0.52 nM.

B9: mouse-human chimeric TMC-2206 antibody carrying the two LC mutations of the SalI site (antibody, human IgG1, V domains shown)
VH: QVQLKESGPGLVAPSQSLSITCTVSGFSLTNYGIHWVRQPPGKGLEWLGVIWARGFTNYNSALMSRLIITKDNSQSQVFLKMNSLQPDDSATYFCARANDGVYYAMDYWGQGTSVTVSS
VL: QFVLTQSPAFLSASPGEKVTMTCSANSSVNYIHWYQQKSGTSPKKWIYDTSKLASGVPVRFSGSGSGTSYSLTISSMETEDAATYYCQQWTTNPLTFGAGTRVDIK
notes: human IgG1 Fc and human κ constant region; 'L1061' is printed for L106I; also called chimeric form carrying the two LC mutations
As to B9, affinity in experiment [10] was put at a Ki of 0.27 nM.
